From patent US20250145690A1 (US Dept. of Health and Human Services, published 2025)

Experiments:
Test in all cases: bead flow cytometry, AUC minus CD4
[1] = target: T1, HCoV-NL63 spike protein (Sino Biological 40604-V08B) (HCoV-NL63, UniProt Q6Q1S2 19-1296)
T1 sequence: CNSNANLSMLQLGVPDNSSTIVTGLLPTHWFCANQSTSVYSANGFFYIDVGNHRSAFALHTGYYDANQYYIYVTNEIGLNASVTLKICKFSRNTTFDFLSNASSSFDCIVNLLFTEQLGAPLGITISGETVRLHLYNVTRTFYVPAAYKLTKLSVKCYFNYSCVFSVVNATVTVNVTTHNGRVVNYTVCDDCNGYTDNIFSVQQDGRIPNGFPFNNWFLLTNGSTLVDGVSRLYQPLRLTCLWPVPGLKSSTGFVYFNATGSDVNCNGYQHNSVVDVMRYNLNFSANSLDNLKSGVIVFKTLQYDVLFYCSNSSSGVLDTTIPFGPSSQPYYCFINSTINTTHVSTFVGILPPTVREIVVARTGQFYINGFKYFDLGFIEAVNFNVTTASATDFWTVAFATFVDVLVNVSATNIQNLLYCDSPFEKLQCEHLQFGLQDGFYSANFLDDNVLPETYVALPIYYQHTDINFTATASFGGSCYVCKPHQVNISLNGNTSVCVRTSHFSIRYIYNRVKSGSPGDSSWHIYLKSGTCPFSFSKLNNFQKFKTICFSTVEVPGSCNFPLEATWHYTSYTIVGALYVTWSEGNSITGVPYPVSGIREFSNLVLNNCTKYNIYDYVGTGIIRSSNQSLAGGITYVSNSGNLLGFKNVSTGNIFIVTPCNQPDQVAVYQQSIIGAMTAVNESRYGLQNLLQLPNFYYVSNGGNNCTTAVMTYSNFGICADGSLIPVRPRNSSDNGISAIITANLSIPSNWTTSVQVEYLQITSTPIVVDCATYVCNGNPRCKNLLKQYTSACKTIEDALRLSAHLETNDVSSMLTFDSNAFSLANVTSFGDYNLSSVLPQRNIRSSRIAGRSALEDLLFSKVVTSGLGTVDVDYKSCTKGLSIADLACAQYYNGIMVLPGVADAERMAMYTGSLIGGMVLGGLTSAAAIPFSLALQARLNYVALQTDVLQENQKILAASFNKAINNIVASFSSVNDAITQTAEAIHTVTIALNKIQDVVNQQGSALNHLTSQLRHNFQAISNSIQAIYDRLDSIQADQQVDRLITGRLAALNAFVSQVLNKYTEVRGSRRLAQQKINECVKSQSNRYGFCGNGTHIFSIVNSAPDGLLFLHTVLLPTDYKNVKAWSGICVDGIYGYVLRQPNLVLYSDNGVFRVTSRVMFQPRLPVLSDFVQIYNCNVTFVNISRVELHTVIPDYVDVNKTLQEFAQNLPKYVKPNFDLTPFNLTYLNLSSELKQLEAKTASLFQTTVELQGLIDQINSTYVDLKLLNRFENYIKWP

[2] = target: T2, HCoV-229E spike protein (Sino Biological 40605-V08B) (HCoV-229E, UniProt P15423 16-1115)
T2 sequence: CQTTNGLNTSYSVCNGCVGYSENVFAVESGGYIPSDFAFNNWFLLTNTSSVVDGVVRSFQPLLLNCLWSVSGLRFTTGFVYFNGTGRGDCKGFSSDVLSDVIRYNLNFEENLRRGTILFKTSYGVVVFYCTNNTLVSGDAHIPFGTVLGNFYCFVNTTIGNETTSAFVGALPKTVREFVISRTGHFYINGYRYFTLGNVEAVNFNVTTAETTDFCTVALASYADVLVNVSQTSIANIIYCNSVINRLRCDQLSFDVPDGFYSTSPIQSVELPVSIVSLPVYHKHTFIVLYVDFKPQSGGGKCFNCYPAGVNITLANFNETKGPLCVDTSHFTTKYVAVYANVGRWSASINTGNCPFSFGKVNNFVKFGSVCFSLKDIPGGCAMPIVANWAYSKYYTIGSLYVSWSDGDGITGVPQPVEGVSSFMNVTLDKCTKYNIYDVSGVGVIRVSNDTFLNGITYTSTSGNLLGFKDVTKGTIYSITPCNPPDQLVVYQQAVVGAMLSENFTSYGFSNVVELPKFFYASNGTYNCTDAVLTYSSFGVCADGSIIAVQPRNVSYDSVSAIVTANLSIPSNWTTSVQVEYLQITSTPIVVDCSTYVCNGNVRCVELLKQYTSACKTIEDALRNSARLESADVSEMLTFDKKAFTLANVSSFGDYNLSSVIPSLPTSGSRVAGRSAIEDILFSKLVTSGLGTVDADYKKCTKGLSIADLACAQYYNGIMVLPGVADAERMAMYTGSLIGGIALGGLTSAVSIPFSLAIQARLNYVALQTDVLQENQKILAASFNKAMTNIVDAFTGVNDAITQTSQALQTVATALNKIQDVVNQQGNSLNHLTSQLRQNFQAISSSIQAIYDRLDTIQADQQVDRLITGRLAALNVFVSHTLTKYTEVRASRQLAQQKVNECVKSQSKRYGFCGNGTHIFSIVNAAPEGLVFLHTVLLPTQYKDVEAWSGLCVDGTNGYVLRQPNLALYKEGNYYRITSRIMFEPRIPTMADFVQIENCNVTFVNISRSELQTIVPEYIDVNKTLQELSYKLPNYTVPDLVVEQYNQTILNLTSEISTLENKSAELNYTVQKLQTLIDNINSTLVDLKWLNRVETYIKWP

[3] = target: SARS-CoV-2 spike receptor binding domain (RBD), recombinant (SARS-CoV-2, UniProt P0DTC2 319-541)
[4] = target: SARS-CoV-2 spike N-terminal domain (NTD), recombinant (SARS-CoV-2, UniProt P0DTC2 14-305)

Measured: binding result

B1: COV44-74 (antibody, V domains shown)
VH: QVQLVQSGAEVKKPGASVKVSCKASGYTFSSYYMNWVRQAPGQGLEWVGLISPSAGYTAYAQMFQGRVTMTRDTSTSTVYMELSSLRSEDTAVYYCARVAVAGPNDYWGQGTLVTVSS
VL: EIVLTQSPGTLSLSPGERATLSCRASQSISSSYLAWYQQKPGQAPRLVILAASTRATGIPDRFSGSGSGTDFTLTISRLEPEDFALYYCQHYRSSPPLWTFGQGTKVEIR
no binding (tested: 200 µg/mL): all assays above

B2: COV49-54 (antibody, V domains shown)
VH: EVQLVESGGGLVQPGGSLRLSCAASGFIVSSNYMSWVRQAPGKGLEWVSMIYSGGSTVYADSVKGRFTISRDISKNTLYLQMNSLRAEDTAVYYCALETFDYWGQGTLVTVSS
VL: DIQMTQSPSSLSASVGDRVTITCRASQGITNHLAWYQQKPGKVPKLLIYAASTLQSGVPSRFSGSGYGTDFTLTISSLQPEDVASYYCQKYDSAPRTFGQGTKVEIK
no binding (tested: 200 µg/mL): all assays above

B3: COV57-38 (antibody, V domains shown)
VH: QVQLVESGGGVVQPGRSLRLSCEASGFNFNNYGMHWVRQAPGKGLEWVAVISYEGSKKYYEDSVRGRFTISRDFSKNTLYLQMNSLRAEDTAVYYCAKANEIFWLGQFKNDALDFWGQGTMVTVSS
VL: QSVLTQPPSASGTPGQRVAVSCSGSSSNIGTNFVNWYQHLPRTAPKLLIYRDNQRPSGVPDRFSGSKSGTSASLAISGLQSEDEADYYCAVWDDSLNGQVFGGGTKVTVL
no binding (tested: 200 µg/mL): all assays above

B4: COV57-34 (antibody, V domains shown)
VH: QVQLVQSGTEVKKPGSSVKVSCRASGGTLSSYSVSWVRQAPGQGLEWMGRIIPILDKKTYAQKYQGRVTIIADTSTSTVYMELSSLKSDDSAVYYCTTFDYDTSGQRDQHDYWGQGTPVTVSS
VL: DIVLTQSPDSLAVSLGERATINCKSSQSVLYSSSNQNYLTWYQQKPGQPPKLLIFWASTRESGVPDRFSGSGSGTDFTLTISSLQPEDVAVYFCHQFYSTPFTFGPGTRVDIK
no binding (tested: 200 µg/mL): all assays above

B5: COV57-13 (antibody, V domains shown)
VH: QVQLVQSGTEVKKPGSSVKVSCRASGGTLSSYSVSWVRQAPGQGLEWMGRIIPILDKKTYAQKYQGRVTIIADTSTSTVYMELSSLKSEDSAVYYCTTFDYDTSGQRDQHDYWGQGTLVTVSS
VL: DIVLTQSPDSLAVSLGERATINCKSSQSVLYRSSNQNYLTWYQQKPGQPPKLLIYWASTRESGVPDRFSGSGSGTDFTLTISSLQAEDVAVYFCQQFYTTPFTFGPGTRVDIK
no binding (tested: 200 µg/mL): all assays above

B6: COV44-37 (antibody, V domains shown)
VH: QVQLVQSGAEVKKPGASVMLSCRASGYTFINDYMHWVRQAPGEGFEWMGIINPTGDGTKFAQKFQGRVTMTRDSSTTTVHMELRSLTSGDTAVYFCATGGRQSAFDIWGQGTVVIVSS
VL: DIVMTQSPLSLPVTPGESASISCRSSQSLLQNNGYNYLDWYLQKPGQSPQLLIYLGSYRASGVPDRFSGSGSGTDFTLKISRVEAEDVGVYYCVQAQQAPPLYTFGQGTKLQIK
no binding (tested: 200 µg/mL): all assays above

B7: COV77-09 (antibody, V domains shown)
VH: EVQLVESGGGLVQPGRSLTLSCSGSGFTFGDYSMSWVRQAPGKGLEWLGFIRSQTYGGTTQYAASVQGRFTILRDDSKSIAYLQMNSLKTEDTAVYYCTRNYGVGDYWGQGTLVTVSS
VL: DIVMTQSPASLAVSLGERATIHCRSSLSVLNSSNNKNYLAWYQQKAGQPPKLLMYWASTRESGVPERFSGSGSGTDFTLTISSLEAGDVAVYYCQQYYDKLSLTFGGGTKVEIK
no binding (tested: 200 µg/mL): all assays above

B8: COV23-01 (antibody, V domains shown)
VH: QVTLKESGPVLVKPTETLTLTCTVSGFSLSNTKMGVSWIRQPPGKALEWLAHIFSNDRKSYTTSLKSRLTISEDTSKSQIVLTMTNMDPVDTATYYCARIGAGGTYNFYYYMDVWGKGTTVTVSS
VL: EIVLTQSPATLSLSPGERATLSCRASQSVSSYLAWYQQKPGQAPRLLIYDASNRATGIPARFSGSGSGTDFTLTISSLEPEDFAVYYCQQRSLYYTFGQGTKLEIK
no binding (tested: 200 µg/mL): all assays above
